From patent US20140087995A1 (published 2014)
Numbered stars: 1 amine (or outer) side, 2 acyl side, 3 side chain; on linkers, the order of the positions; unused ones are H or OH. Bridge positions count the residues as written; N and C are the ends. Side chains are listed from the residue outwards. Ends that are not written are not given here. * marks the point of attachment. C20 diacid = O=C(O)CCCCCCCCCCCCCCCCCCC(=O)*; γGlu = O=C(O)[C@H](CCC(=O)[*:2])N[*:1]

T1: rat calcitonin receptor (rat, UniProt P32214 25-516)
T1 construct: whole, on cells; Membranes prepared from transiently transfected BHK tk'ts 13 cells (Assay VIII); also called rCTR; rCT
T1 sequence (looked up): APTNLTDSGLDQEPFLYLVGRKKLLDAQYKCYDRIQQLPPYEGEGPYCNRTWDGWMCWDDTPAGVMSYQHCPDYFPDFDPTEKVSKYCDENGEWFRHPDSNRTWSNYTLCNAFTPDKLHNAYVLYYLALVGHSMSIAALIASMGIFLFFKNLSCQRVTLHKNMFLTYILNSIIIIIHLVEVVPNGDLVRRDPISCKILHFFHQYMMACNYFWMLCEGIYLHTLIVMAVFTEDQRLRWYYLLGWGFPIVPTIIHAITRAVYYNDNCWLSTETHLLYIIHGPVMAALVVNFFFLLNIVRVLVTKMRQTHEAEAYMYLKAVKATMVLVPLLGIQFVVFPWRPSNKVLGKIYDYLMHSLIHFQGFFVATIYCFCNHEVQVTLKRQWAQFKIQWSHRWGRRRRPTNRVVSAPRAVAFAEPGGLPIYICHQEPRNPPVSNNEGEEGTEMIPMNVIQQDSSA

T2: human calcitonin receptor (human, UniProt P30988 25-474)
T2 construct: whole, on cells; Membranes prepared from a stably transfected BHK cell line (Assay VII); also called hCTR; hCT
T2 sequence (looked up): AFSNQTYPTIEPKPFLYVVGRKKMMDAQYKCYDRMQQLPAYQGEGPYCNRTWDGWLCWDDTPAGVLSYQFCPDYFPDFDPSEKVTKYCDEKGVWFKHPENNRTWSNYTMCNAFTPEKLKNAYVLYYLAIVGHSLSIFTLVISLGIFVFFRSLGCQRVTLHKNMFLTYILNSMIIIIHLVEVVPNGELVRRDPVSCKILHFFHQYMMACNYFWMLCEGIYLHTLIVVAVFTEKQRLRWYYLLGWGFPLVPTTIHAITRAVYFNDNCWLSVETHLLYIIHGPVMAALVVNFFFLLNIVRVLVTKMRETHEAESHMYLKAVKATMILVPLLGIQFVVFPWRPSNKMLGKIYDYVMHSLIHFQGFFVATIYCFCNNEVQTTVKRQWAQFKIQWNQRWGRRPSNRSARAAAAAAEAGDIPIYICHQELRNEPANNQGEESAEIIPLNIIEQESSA

T3: rat amylin receptor (rat calcitonin receptor + rat RAMP 3) (rat, UniProt P32214 25-516; Q9JJ73 23-147)
T3 construct: whole, on cells; Membranes prepared from transiently transfected BHK tk'ts 13 cells (Assay VI); also called rAmylin-R; rAmylin
T3 sequence (looked up) 1: T1 sequence (looked up)
T3 sequence (looked up) 2: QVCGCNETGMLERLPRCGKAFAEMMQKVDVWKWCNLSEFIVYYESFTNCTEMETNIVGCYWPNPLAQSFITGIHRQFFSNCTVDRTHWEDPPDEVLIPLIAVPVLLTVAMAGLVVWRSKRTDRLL

B1: N^ε1-[(4S)-4-carboxy-4-(19-carboxynonadecanoylamino)butanoyl]-[Arg14,Arg17,Pro21,Pro27,Pro34]-h-amylin (peptide)
peptide: K([γGlu-C20 diacid])CNTATCATQRLARFLRHSSPNFGAIPSSTNVGPNTY-NH2
modifications: disulfide 2-7; N-terminus assumed
SMILES: CC[C@H](C)[C@H](NC(=O)[C@H](C)NC(=O)CNC(=O)[C@H](Cc1ccccc1)NC(=O)[C@H](CC(N)=O)NC(=O)[C@@H]1CCCN1C(=O)[C@H](CO)NC(=O)[C@H](CO)NC(=O)[C@H](Cc1c[nH]cn1)NC(=O)[C@H](CCCNC(=N)N)NC(=O)[C@H](CC(C)C)NC(=O)[C@H](Cc1ccccc1)NC(=O)[C@H](CCCNC(=N)N)NC(=O)[C@H](C)NC(=O)[C@H](CC(C)C)NC(=O)[C@H](CCCNC(=N)N)NC(=O)[C@H](CCC(N)=O)NC(=O)[C@@H](NC(=O)[C@H](C)NC(=O)[C@@H]1CSSC[C@H](NC(=O)[C@@H](N)CCCCNC(=O)CC[C@H](NC(=O)CCCCCCCCCCCCCCCCCCC(=O)O)C(=O)O)C(=O)N[C@@H](CC(N)=O)C(=O)N[C@@H]([C@@H](C)O)C(=O)N[C@@H](C)C(=O)N[C@@H]([C@@H](C)O)C(=O)N1)[C@@H](C)O)C(=O)N1CCC[C@H]1C(=O)N[C@@H](CO)C(=O)N[C@@H](CO)C(=O)N[C@H](C(=O)N[C@@H](CC(N)=O)C(=O)N[C@H](C(=O)NCC(=O)N1CCC[C@H]1C(=O)N[C@@H](CC(N)=O)C(=O)N[C@H](C(=O)N[C@@H](Cc1ccc(O)cc1)C(N)=O)[C@@H](C)O)C(C)C)[C@@H](C)O
notes: Analogue of human amylin; also called compound 65
B2: N^ε1-[(4S)-4-carboxy-4-(19-carboxynonadecanoylamino)butanoyl]-[Arg14,Arg17,Pro21,Pro27]-h-amylin (peptide)
peptide: K([γGlu-C20 diacid])CNTATCATQRLARFLRHSSPNFGAIPSSTNVGSNTY-NH2
modifications: disulfide 2-7; N-terminus assumed
SMILES: CC[C@H](C)[C@H](NC(=O)[C@H](C)NC(=O)CNC(=O)[C@H](Cc1ccccc1)NC(=O)[C@H](CC(N)=O)NC(=O)[C@@H]1CCCN1C(=O)[C@H](CO)NC(=O)[C@H](CO)NC(=O)[C@H](Cc1c[nH]cn1)NC(=O)[C@H](CCCNC(=N)N)NC(=O)[C@H](CC(C)C)NC(=O)[C@H](Cc1ccccc1)NC(=O)[C@H](CCCNC(=N)N)NC(=O)[C@H](C)NC(=O)[C@H](CC(C)C)NC(=O)[C@H](CCCNC(=N)N)NC(=O)[C@H](CCC(N)=O)NC(=O)[C@@H](NC(=O)[C@H](C)NC(=O)[C@@H]1CSSC[C@H](NC(=O)[C@@H](N)CCCCNC(=O)CC[C@H](NC(=O)CCCCCCCCCCCCCCCCCCC(=O)O)C(=O)O)C(=O)N[C@@H](CC(N)=O)C(=O)N[C@@H]([C@@H](C)O)C(=O)N[C@@H](C)C(=O)N[C@@H]([C@@H](C)O)C(=O)N1)[C@@H](C)O)C(=O)N1CCC[C@H]1C(=O)N[C@@H](CO)C(=O)N[C@@H](CO)C(=O)N[C@H](C(=O)N[C@@H](CC(N)=O)C(=O)N[C@H](C(=O)NCC(=O)N[C@@H](CO)C(=O)N[C@@H](CC(N)=O)C(=O)N[C@H](C(=O)N[C@@H](Cc1ccc(O)cc1)C(N)=O)[C@@H](C)O)C(C)C)[C@@H](C)O
notes: Analogue of human amylin; also called compound 83
B3: N^ε1-[(4S)-4-carboxy-4-(19-carboxynonadecanoylamino)butanoyl]-[Arg17,Pro21,Pro27,Arg34]-h-amylin (peptide)
peptide: K([γGlu-C20 diacid])CNTATCATQRLANFLRHSSPNFGAIPSSTNVGRNTY-NH2
modifications: disulfide 2-7; N-terminus assumed
SMILES: CC[C@H](C)[C@H](NC(=O)[C@H](C)NC(=O)CNC(=O)[C@H](Cc1ccccc1)NC(=O)[C@H](CC(N)=O)NC(=O)[C@@H]1CCCN1C(=O)[C@H](CO)NC(=O)[C@H](CO)NC(=O)[C@H](Cc1c[nH]cn1)NC(=O)[C@H](CCCNC(=N)N)NC(=O)[C@H](CC(C)C)NC(=O)[C@H](Cc1ccccc1)NC(=O)[C@H](CC(N)=O)NC(=O)[C@H](C)NC(=O)[C@H](CC(C)C)NC(=O)[C@H](CCCNC(=N)N)NC(=O)[C@H](CCC(N)=O)NC(=O)[C@@H](NC(=O)[C@H](C)NC(=O)[C@@H]1CSSC[C@H](NC(=O)[C@@H](N)CCCCNC(=O)CC[C@H](NC(=O)CCCCCCCCCCCCCCCCCCC(=O)O)C(=O)O)C(=O)N[C@@H](CC(N)=O)C(=O)N[C@@H]([C@@H](C)O)C(=O)N[C@@H](C)C(=O)N[C@@H]([C@@H](C)O)C(=O)N1)[C@@H](C)O)C(=O)N1CCC[C@H]1C(=O)N[C@@H](CO)C(=O)N[C@@H](CO)C(=O)N[C@H](C(=O)N[C@@H](CC(N)=O)C(=O)N[C@H](C(=O)NCC(=O)N[C@@H](CCCNC(=N)N)C(=O)N[C@@H](CC(N)=O)C(=O)N[C@H](C(=O)N[C@@H](Cc1ccc(O)cc1)C(N)=O)[C@@H](C)O)C(C)C)[C@@H](C)O
notes: Analogue of human amylin; also called compound 79
B4: N^ε1-[(4S)-4-carboxy-4-(19-carboxynonadecanoylamino)butanoyl]-[Arg17,Pro21,Pro27,His34]-h-amylin (peptide)
peptide: K([γGlu-C20 diacid])CNTATCATQRLANFLRHSSPNFGAIPSSTNVGHNTY-NH2
modifications: disulfide 2-7; N-terminus assumed
SMILES: CC[C@H](C)[C@H](NC(=O)[C@H](C)NC(=O)CNC(=O)[C@H](Cc1ccccc1)NC(=O)[C@H](CC(N)=O)NC(=O)[C@@H]1CCCN1C(=O)[C@H](CO)NC(=O)[C@H](CO)NC(=O)[C@H](Cc1c[nH]cn1)NC(=O)[C@H](CCCNC(=N)N)NC(=O)[C@H](CC(C)C)NC(=O)[C@H](Cc1ccccc1)NC(=O)[C@H](CC(N)=O)NC(=O)[C@H](C)NC(=O)[C@H](CC(C)C)NC(=O)[C@H](CCCNC(=N)N)NC(=O)[C@H](CCC(N)=O)NC(=O)[C@@H](NC(=O)[C@H](C)NC(=O)[C@@H]1CSSC[C@H](NC(=O)[C@@H](N)CCCCNC(=O)CC[C@H](NC(=O)CCCCCCCCCCCCCCCCCCC(=O)O)C(=O)O)C(=O)N[C@@H](CC(N)=O)C(=O)N[C@@H]([C@@H](C)O)C(=O)N[C@@H](C)C(=O)N[C@@H]([C@@H](C)O)C(=O)N1)[C@@H](C)O)C(=O)N1CCC[C@H]1C(=O)N[C@@H](CO)C(=O)N[C@@H](CO)C(=O)N[C@H](C(=O)N[C@@H](CC(N)=O)C(=O)N[C@H](C(=O)NCC(=O)N[C@@H](Cc1c[nH]cn1)C(=O)N[C@@H](CC(N)=O)C(=O)N[C@H](C(=O)N[C@@H](Cc1ccc(O)cc1)C(N)=O)[C@@H](C)O)C(C)C)[C@@H](C)O
notes: Analogue of human amylin; also called compound 77
B5: N^ε1-[(4S)-4-carboxy-4-(19-carboxynonadecanoylamino)butanoyl]-[Arg17,Pro21,Pro27,His35]-h-amylin (peptide)
peptide: K([γGlu-C20 diacid])CNTATCATQRLANFLRHSSPNFGAIPSSTNVGSHTY-NH2
modifications: disulfide 2-7; N-terminus assumed
SMILES: CC[C@H](C)[C@H](NC(=O)[C@H](C)NC(=O)CNC(=O)[C@H](Cc1ccccc1)NC(=O)[C@H](CC(N)=O)NC(=O)[C@@H]1CCCN1C(=O)[C@H](CO)NC(=O)[C@H](CO)NC(=O)[C@H](Cc1c[nH]cn1)NC(=O)[C@H](CCCNC(=N)N)NC(=O)[C@H](CC(C)C)NC(=O)[C@H](Cc1ccccc1)NC(=O)[C@H](CC(N)=O)NC(=O)[C@H](C)NC(=O)[C@H](CC(C)C)NC(=O)[C@H](CCCNC(=N)N)NC(=O)[C@H](CCC(N)=O)NC(=O)[C@@H](NC(=O)[C@H](C)NC(=O)[C@@H]1CSSC[C@H](NC(=O)[C@@H](N)CCCCNC(=O)CC[C@H](NC(=O)CCCCCCCCCCCCCCCCCCC(=O)O)C(=O)O)C(=O)N[C@@H](CC(N)=O)C(=O)N[C@@H]([C@@H](C)O)C(=O)N[C@@H](C)C(=O)N[C@@H]([C@@H](C)O)C(=O)N1)[C@@H](C)O)C(=O)N1CCC[C@H]1C(=O)N[C@@H](CO)C(=O)N[C@@H](CO)C(=O)N[C@H](C(=O)N[C@@H](CC(N)=O)C(=O)N[C@H](C(=O)NCC(=O)N[C@@H](CO)C(=O)N[C@@H](Cc1c[nH]cn1)C(=O)N[C@H](C(=O)N[C@@H](Cc1ccc(O)cc1)C(N)=O)[C@@H](C)O)C(C)C)[C@@H](C)O
notes: Analogue of human amylin; also called compound 60

What follows are binders tested against T1, rat calcitonin receptor (assay: SPA competition vs 125I-calcitonin, membranes of BHK cells with rat calcitonin receptor (Assay VIII)).

Point of comparison: B4, IC50 205 nM. Against it:
- B1 — 1.9-fold lower, 108 nM
- B2 — within 1.5-fold, 140 nM
- B3 — 5.8-fold lower, 35.5 nM
- B5 — 7.8-fold lower, 26.3 nM

The binders below were run against T1, rat calcitonin receptor (assay: ratio of binding IC50s: rat calcitonin receptor / rat amylin receptor (reference)).

Point of comparison: B2, “Ratio rCT/rAmylin binding” value 49.7. Against it:
- B1 — higher, 93.2
- B3 — lower, 21.5
- B4 — higher, 137
- B5 — higher, 122

These binders were tested against T2, human calcitonin receptor (assay: ratio of binding IC50s: human calcitonin receptor / human amylin receptor (reference)).
Summary of the method: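 Competition binding by SPA with cell membranes (35 ng/μL) and SPA beads in 50 mM Hepes pH 7.4 with 1 mM CaCl2, 5 mM MgCl2, 0.1% OA and 0.02% Tween20. Incubated 120 min at 25 °C with shaking, then counted.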

Point of comparison: B2, “Ratio hCT/hAmylin binding” value 146. Against it:
- B1 — lower, 82.4
- B3 — lower, 46.1
- B4 — lower, 118
- B5 — lower, 45.2

These binders were tested against T3, rat amylin receptor (rat calcitonin …) (assay: SPA competition vs 125I-rat amylin, membranes of BHK cells with rat calcitonin receptor + rat RAMP3 (Assay VI)).

Point of comparison: B1, IC50 1.16 nM. Against it:
- B2 — 2.4-fold higher, 2.83 nM
- B3 — within 1.5-fold, 1.65 nM
- B4 — within 1.5-fold, 1.5 nM
- B5 — 5.4-fold lower, 0.215 nM
